Test results from the supplement of paper PMC9170038.

Key:
MS2 coat protein [1] = assay: apparent KD of MS2 coat protein, switch OFF state (with FMN for OFF switches, without FMN for ON switches); designed switch direction (-1 OFF switch, 1 ON switch): -1; higher = weaker reporter binding; details: FMN input: 0 or 200 uM; Eterna round: R93 (includes R88 designs)
In short: (§1)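 Titrations with SNAP-549-labelled MS2 coat protein ran in twofold steps from 0.7 or 1.5 nM to 3 µM, each step taking 0.8–1.5 h at the start and 10–20 min toward the end. The targets were designed RNA switches transcribed on-chip from Illumina sequencing clusters, held in 100 mM Tris-HCl pH 7.5, 80 mM KCl, 4 mM MgCl2, without or with constant ligand. Apparent KD was taken per design as the median of normalised cluster binding-curve fits.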

MS2 coat protein [2] = assay: apparent KD of MS2 coat protein, switch ON state; designed switch direction (-1 OFF switch, 1 ON switch): -1; higher = weaker reporter binding; details: FMN input: 0 or 200 uM; Eterna round: R93 (includes R88 designs)
In short: as §1

Sequence	apparent KD of MS2 coat protein (MS2 coat protein [1]) [nM]	apparent KD of MS2 coat protein (MS2 coat protein [2]) [nM]
AUAAAGUCAGGAUAUGUAAAAAUAACGAAAGUUAUAAAUAAACAGAAGGGACAUGAGGAUCACCCAUGUGGAAU [Meechl MS2 EX4 62% 3]	75	54.2
CUAAAGCGAGGAUAUACAAUAAAAGGGAAUAAGGGAAAAAAACAUGAGGAUCACCCAUGUAGAAGGCGCCGAAA [Ex 2 #1]	26.5	25.6
AACUGACAUGAGGAUCACCCAUGUCAGGAUAUGCUUCUAGGAAAAAUAAAAACUAGAUGCAGAAGGGAUAUGGG [Design 38]	33.3	22.2
AGGCGGGUAGGAUAUGCGUACUGACGGGAAAACUGAAUGGUACAUGAGGAUCACCCAUGUAGAAGGGCUCUGAA [Dora Explored 23 - Jieux - Exclusion 2]	111	67.1
AAAAAGCUAGGAUAUACAUGAAAAAAAAAAAAGUAAAAAAAACAUGAGGAUCACCCAUGUAGAAGGAGCAAAAA [water's exclusion 2 last]	37	40.4
AAAGAUGGAGGAUAUACAUGAGGAUCACCCAUGUAAAAAAAAAAGAGGGAAAAAGAAAGUAGAAGGCCACAAAA [Ex 3 May 44]	46.4	83.1
AGAAAACAUGAGGAUCACCCAUGUAAGGAUAUGCUGAAAAACACGGAAAAAACGUGCAGCAGAAGGUACAAAAA [Mat - Exclusion 1 - Eli mod - D97]	38.6	17.8
AUCAUGUAAGGAUAUUCAAGAAAAGAAAAGAAAGAAAAGAAGAAGAAGGUACAUGAGGAUCACCCAUGUAAGAA [EteRNA is fun!]	64.2	42.5
AAAAAAAAAGGAUAUACAGGAGGUAAGGUCGGACAAAAAAAACAUGAGGAUCACCCAUGUAGAAGGUUUAAAAA [Excls2-IX]	19.8	34.5
AGUCGGCGAGGAUAUACAUGAGGAUCACCCAUGUGAGAGAAAAAAGUGAGUCAGAAAAGUAGAAGGCGCUGACA [JL Lego Mod 4]	41.6	63.4
ACGUACUGAGGAUAUACGAACAUGUCAAAAGACGUGAAGGGACAUGAGGAUCACCCAUGUAGAAGGCAGUACGA [Mat - Exclusion 2 - JL mod - D7]	172	60.7
AAGAAGAGAGGAUAUACAUGAGGAUCACCCAUGUAAAAGAAAGAAAGGGAAAAGAAAAGUAGAAGGCUCAAGAA [Neferkare-setpenre Ramesses IX]	45.7	34.6
AAACGUAGAGGAUAUACAAAAAGAUUACGAAAGUAAUCGGGACAUGAGGAUCACCCAUGUAGAAGGCUACGAAA [Mod2 of Meechl 64% 2]	94.5	36.7
AGAAAACAUGAGGAUCACCCAUGUGAGGAUAUCGAUGUCCAAAAAAAAGUGCGGACCUCGAGAAGGCACAUUGG [Mod of Erbelaed v.3 (favor state 2,lowered kcal by 1)]	51.1	49.5
AGGAAACAUGAGGAUCACCCAUGUGAGGAUAUUCAAAAGAAAAGAAAAGAAAGAAGAAGAAGAAGGUACAAGAA [Neferefre]	29.9	28.3
AAAAUGUGAGGAUAUGUACGAAAAAAUAAAAAAAUAAAAGUACAGAAGGCACAUGAGGAUCACCCAUGUGGGAA [EX4 399: Minimal 12]	94	158
AAAAAGGCAGGAUAUACGUACAUGUCGAAAGACGUGAAGGGACAUGAGGAUCACCCAUGUAGAAGGGUCAAGAA [Mat - Exclusion 2 - JL mod - D77]	93.4	111

Sequence	apparent KD of MS2 coat protein (MS2 coat protein [1]) [nM]	apparent KD of MS2 coat protein (MS2 coat protein [2]) [nM]
CUCUUGUGAGGAUAUCCAAGAAAAGAAAAGAAAGAAAAGAAGGAGAAGGCACAUGAGGAUCACCCAUGUAAGAA [EteRNA is fun!]	38.9	38.6
AAAAAUGGAGGAUAUACAUGAGGAUCACCCAUGUGUGGGUAUACUGUGUCGGCGUCAGGUAGAAGGCCAAAAAA [Gilly Gone Silly 28 - Jieux - Exclusion 3]	121	132
AAUAACUCAGGAUAUACUAAAGAAAUGAAAAGAAAUAAAGAACAUGAGGAUCACCCAUGUAGAAGGGAGAAUAA [Wazad]	55.1	94.2
AAAAGUAGAGGAUAUACAUGAGGAUCACCCAUGUAGAAAGGAAGUGUAUAUAUGGCGUGUAGAAGGCUGCAUGA [Power strip]	32.3	29.3
AGAGGACAUGAGGAUCACCCAUGUGAGGAUAUGCACAACUAAGGACAAGAUCGCUAUAGCAGAAGGCACGUACU [JR_EXc001_Sub809]	33.8	39.3
AAGUUGUCAGGAUAUGCUUGUCGUCACAAAAGUGAUGACGAGCAGAAGGGACAUGAGGAUCACCCAUGUAAAGA [JL eternac mod 2]	117	65.8
GAGAUACAUGAGGAUCACCCAUGUGAGGAUAUCGGUUGGAGGAGGUGGAGGUUGAGUACGAGAAGGCACGGAUG [salish99-Ex1-10]	31.1	24.9
AACAAGUCAGGAUAUUCGACAAGUAAAUAAGUAAAUCAAAAGAAGAAGGGACAUGAGGAUCACCCAUGUAAAUA [JR_Exc004_Sub401]	21.3	32.5
AGUUGGCGAGGAUAUACAUGAGGAUCACCCAUGUAAAAUAAAUAAAAAAUAAAAGGGAGUAGAAGGCGCUGACA [73%, Moding Norbert Elias, 16]	53.4	41.9
AAUAAGUGAGGAUAUCCAAAUAGUAGAUAAGAUUCCCUAAAGGAGAAGGCACAUGAGGAUCACCCAUGUAAAUA [JR_Exc004_Sub006]	31.5	36.1
AAAUACCAAGGAUAUACAUGAGGAUCACCCAUGUACAAACCCGUGGAACGGAUCGUUGGUAGAAGGUGGAAAUA [Isleusso]	12.2	13.4
AAGAACUGAGGAUAUACUAAAGAAAUGAAAAGAAAGAAAGAACAUGAGGAUCACCCAUGUAGAAGGCAGAAGAA [Ya'ammu Nubwoserre]	18	29.9
AAGGUUCGAGGAUAUACAUAGAUACAGAUACAUGUAGACGUACAUGAGGAUCACCCAUGUAGAAGGCGAAUAUA [AJ 25]	142	69.7
AACAGGUCAGGAUAUGUGGAAAAAAUAAAAAAAAAUAAAACACAGAAGGGACAUGAGGAUCACCCAUGUAAACA [Mat - Exclusion 4 - Mayanna - D143]	56.8	49.3
AGGUUGUCAGGAUAUGCGUGAAGAAUAAAACAAAUAACAACGCAGAAGGGACAUGAGGAUCACCCAUGUAACCA [May 53]	27.2	35.6
GAAAAACAUGAGGAUCACCCAUGUAAGGAUAUGCUAAAAAACGCAAAAAAAGCGAAUAGCAGAAGGUACAAAAG [Mat - Exclusion 1 - Eli mod - D82]	78.1	22.3
AUGUACCUAGGAUAUACAUGAGGAUCACCCAUGUUCCGGGAGCAAUCAAGUUAAUAUUGUAGAAGGAGGUGAAA [JR_Exc003_Sub314]	28.4	16
